For one molecule, Kd, koff and kon results are on record in patent US20250340654A1 (INTERVET, published 2025).

One may read the Kd as the free concentration of one partner at which half of the binding sites on the other are occupied at equilibrium, for simple one-to-one binding. A lower Kd goes with higher affinity. As a reminder, the koff is the rate constant with which the complex falls apart. Low readings indicate a long-lived complex, high ones a short-lived complex. In general, kon refers to the second-order rate constant of association. Higher therefore signals fast association.

Assay [1] has as its target T1, Canine IL-31RA ECD-10His (canine, biotin-labeled in the Octet assay (site not stated)).
T1 construct: The ELISA and Octet protocols say only 'IL-31RA' or 'canine IL-31RA'; also called cIL-31RA; canine IL-31 receptor alpha extracellular domain, HIS-tagged
T1 chain: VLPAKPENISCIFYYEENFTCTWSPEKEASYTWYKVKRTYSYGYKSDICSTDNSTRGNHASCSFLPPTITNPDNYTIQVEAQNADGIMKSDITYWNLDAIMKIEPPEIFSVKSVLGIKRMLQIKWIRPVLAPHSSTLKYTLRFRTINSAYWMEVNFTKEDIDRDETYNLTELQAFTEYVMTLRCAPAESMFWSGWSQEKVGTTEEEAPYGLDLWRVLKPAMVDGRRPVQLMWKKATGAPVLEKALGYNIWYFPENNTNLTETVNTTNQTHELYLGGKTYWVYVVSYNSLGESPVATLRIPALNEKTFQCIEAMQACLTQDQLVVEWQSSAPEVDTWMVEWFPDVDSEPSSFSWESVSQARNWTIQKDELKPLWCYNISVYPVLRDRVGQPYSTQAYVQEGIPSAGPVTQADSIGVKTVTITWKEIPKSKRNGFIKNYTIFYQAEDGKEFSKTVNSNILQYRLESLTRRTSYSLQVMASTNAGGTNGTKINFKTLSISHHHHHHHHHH
The assay can be described thus: BLI (Octet); end of the range tied to 224G3 by Table 2. How it is done: (§1) All kinetics measurements were performed by Octet HTX using SA biosensors and Data Acquisition 12.0 software. A biotin-labeled antigen (canine IL-31RA) was loaded onto the pre-rehydrated SA biosensors for 120s at a concentration of 1 μg/mL. Next, the biosensors were placed into Octet Kinetics Buffer (PBS+0.02% Tween 20, 0.1% BSA) for the blocking phase for 120s. Then, for the association phase, antigen loaded biosensors were placed into 2-fold serial dilutions from 100 nM down to 3.13 nM of anti-IL-31RA monoclonal antibody in Octet Kinetics Buffer for 300s. The last well was buffer alone and that sensor was used for reference sensor subtraction. Finally, the biosensors were placed into Octet Kinetics Buffer for the dissociation phase for 300s. Analysis was performed using Data Analysis 12.0 software and curves were fitted using a 1:1 binding model.
On the technique in general: BLI is a label-free optical method that tracks binding on a fibre tip over time.

The target in assay [2] is T1, Canine IL-31RA ECD-10His. As to the kind of experiment: BLI (Octet HTX), biotin-labeled canine IL-31RA on SA biosensors, 1:1 fit. How it is done: These constants reflect the binding affinity of the individual monoclonal antibodies for canine IL-31 RA.
as §1

B1: 224G3 (antibody, V domains shown)
VH: EVQLVESGGDLVKPGGSLKLSCAASGFTFSSYGMSWVRQTPDKRLEWVATISNGGSYTYYPDSVKGRFTISRDNAKNTLYMQMSSLKSEDTAMYYCARNEPPDYWGQGTSVTVSS
VL: QIVLTQSPAIMSASLGERVTMTCTASSSVGSSYLHWYQQKPGSSPKLWIYDTSNLASGVPVRFSGSGSGTSYSLTISSMEAEDAATYYCHQYHRSPYTFGGGTKLEIK
notes: Mouse monoclonal antibody from a hybridoma; also called mouse mAb 224G3
As to B1, in assay [1], the Kd worked out at 1 pM. In assay [2], this molecule yielded a Kd of 0.964 pM, a dissociation rate constant (koff) of 1.08e-06 s⁻¹ and a kon of 1.12e+06 M⁻¹ s⁻¹.
